Data reported in patent US20110086806A1 (published 2011).

How the values were obtained:
[1] = biological target: T1, recombinant human IL-23R/Fc chimera (R&D Systems) (human, UniProt Q5VWK5 24-355); assay: SPR
T1 construct: Bought; also called rhIL23RFc
T1 sequence (looked up): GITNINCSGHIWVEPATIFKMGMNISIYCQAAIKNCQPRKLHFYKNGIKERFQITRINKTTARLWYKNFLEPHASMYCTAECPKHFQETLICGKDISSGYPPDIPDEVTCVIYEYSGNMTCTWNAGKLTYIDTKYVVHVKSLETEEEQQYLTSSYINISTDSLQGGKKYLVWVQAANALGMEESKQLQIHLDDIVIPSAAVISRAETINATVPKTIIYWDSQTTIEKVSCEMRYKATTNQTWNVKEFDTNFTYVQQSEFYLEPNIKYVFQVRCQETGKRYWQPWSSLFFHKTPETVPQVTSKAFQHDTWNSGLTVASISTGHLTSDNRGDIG
Summary of the method: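 Recombinant human IL-23R/Fc captured on anti-human IgG Fc CM5 surface (<200 RU); ATRIMER complexes at 1-500 nM injected at 30 μl/min, 3 min association and 5 min dissociation. Kinetic constants fitted from double-referenced sensorgrams.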

[2] = biological target: T2, recombinant human IL-12Rβ2/Fc fusion protein (R&D Systems) (human, UniProt Q99665 24-622, limits assumed); assay: SPR
T2 construct: Bought; also called Il12Rb2
T2 sequence: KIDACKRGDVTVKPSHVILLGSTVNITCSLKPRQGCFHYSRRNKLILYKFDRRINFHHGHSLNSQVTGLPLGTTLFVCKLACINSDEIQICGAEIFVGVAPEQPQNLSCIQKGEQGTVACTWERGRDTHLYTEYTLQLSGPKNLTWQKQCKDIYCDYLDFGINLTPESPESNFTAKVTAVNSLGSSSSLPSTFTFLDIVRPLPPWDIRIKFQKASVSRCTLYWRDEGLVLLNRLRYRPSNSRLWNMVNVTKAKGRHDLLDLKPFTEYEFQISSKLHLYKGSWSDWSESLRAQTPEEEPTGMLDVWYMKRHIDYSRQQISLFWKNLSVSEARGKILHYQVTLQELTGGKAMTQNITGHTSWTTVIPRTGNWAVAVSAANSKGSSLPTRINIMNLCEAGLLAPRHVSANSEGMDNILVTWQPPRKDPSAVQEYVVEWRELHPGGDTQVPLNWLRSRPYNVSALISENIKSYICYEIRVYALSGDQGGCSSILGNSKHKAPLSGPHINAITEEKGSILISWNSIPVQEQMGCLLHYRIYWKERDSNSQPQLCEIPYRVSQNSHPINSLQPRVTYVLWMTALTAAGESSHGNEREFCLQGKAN
Experimental: (§1) A Biacore 3000 biosensor (GE Healthcare) was used to evaluate the interaction of human IL-12Rβ1/Fc or IL-12Rβ2/Fc with IL-23R binding ATRIMER™ complexes. Immobilization of an anti-human IgG Fc antibody (GE Healthcare) to the CM5 chip (GE Healthcare) was performed using standard amine coupling chemistry, and this modified surface was used to capture recombinant human IL-12Rβ1/Fc or IL-12Rβ2/Fc fusion protein (R&D Systems). A low-density receptor surface, less than 200 RU, was used for all of the analyses. ATRIMER™ complex dilutions (100 nM) were injected over the IL-12R surface at 30 μl/min. Data collection was 3 minutes for the association and 5 minutes for dissociation. The anti-human IgG surface was regenerated with a 30s pulse of 3M magnesium chloride. All sensorgrams were double-referenced against an anti-human IgG Fc antibody surface as well as buffer injections.

[3] = biological target: T3, recombinant human IL-12Rβ1/Fc fusion protein (R&D Systems) (human, UniProt P42701 24-540, limits assumed); assay: SPR
T3 construct: Bought; also called Il12Rb1
Experimental: as §1

[4] = biological target: T1, recombinant human IL-23R/Fc chimera …; assay: competition ELISA vs IL-23

B1: 101-113-6C108 ATRIMER complex (designed binder)
chain: EPPTQKPKKIVNAKKDVVNTKMFEELKSRLDTLAQEVALLKEQQALQTVCLKGTKVHMKCFLAFTQTKTFHEASEDCISRGGTLSTPQTGSENDALYEYLRQSVGNEAEIWLGLNGSALTNTWVDMTGARIAYKNWEPPPPHHPMGGFGVFGENCAVLSGAANGKWFDKRCRDQLPYICQFGIV
modifications: Forms a homotrimer through the tetranectin coiled coil; one protomer is given.
notes: not shown: C-terminal tag: His/Myc (pANA4) or HA-StrepII (pANA10)
Ka [1]: 1.63e+09 M⁻¹ | Kd [1]: 0.613 nM | koff [1]: 0.000382 s⁻¹ | kon [1]: 623000 M⁻¹ s⁻¹ | binding result [2]: no binding (tested: 100 nM) | binding result [3]: no binding (tested: 100 nM) | Ratio IC50 to 056-53.H4E IC50 [4]: 0.9
